Earlier results, collected in PMC12528386.

Molecular target: BamA (Escherichia coli) (UniProt P0A940)

RcsF (from UniProt P69411)
Kd: 0.4 µM
